The target of series [1] is T1, FANCD2;FANCI (Homo sapiens;Homo sapiens, UniProt Q9BXW9;Q9NVI1 1-1451;1-1328, |). Put plainly: EMSA; supershifted by anti-HA; 0.5 ug protein, 1 nM DNA; titrated 0.125-0.5 ug; EMSA: 25 mM Tris-HCl pH 7.5, 100 mM NaCl, 6% glycerol, 1 mM DTT, 10 ul, room temperature 1 h; 4% PAGE in 0.4x TBE at 4 C. (A gel shift assay detects complexes by their altered migration in electrophoresis.)

The target of series [2] is T1, FANCD2;FANCI. Put plainly: EMSA; 0.5 ug protein, 1 nM DNA; significantly stronger than non-crosslinked fork; titrated 0.125-0.5 ug; EMSA: 25 mM Tris-HCl pH 7.5, 100 mM NaCl, 6% glycerol, 1 mM DTT, 10 ul, room temperature 1 h; 4% PAGE in 0.4x TBE at 4 C.

T1 sequence (Q9BXW9 whole entry, chain 1 of 2): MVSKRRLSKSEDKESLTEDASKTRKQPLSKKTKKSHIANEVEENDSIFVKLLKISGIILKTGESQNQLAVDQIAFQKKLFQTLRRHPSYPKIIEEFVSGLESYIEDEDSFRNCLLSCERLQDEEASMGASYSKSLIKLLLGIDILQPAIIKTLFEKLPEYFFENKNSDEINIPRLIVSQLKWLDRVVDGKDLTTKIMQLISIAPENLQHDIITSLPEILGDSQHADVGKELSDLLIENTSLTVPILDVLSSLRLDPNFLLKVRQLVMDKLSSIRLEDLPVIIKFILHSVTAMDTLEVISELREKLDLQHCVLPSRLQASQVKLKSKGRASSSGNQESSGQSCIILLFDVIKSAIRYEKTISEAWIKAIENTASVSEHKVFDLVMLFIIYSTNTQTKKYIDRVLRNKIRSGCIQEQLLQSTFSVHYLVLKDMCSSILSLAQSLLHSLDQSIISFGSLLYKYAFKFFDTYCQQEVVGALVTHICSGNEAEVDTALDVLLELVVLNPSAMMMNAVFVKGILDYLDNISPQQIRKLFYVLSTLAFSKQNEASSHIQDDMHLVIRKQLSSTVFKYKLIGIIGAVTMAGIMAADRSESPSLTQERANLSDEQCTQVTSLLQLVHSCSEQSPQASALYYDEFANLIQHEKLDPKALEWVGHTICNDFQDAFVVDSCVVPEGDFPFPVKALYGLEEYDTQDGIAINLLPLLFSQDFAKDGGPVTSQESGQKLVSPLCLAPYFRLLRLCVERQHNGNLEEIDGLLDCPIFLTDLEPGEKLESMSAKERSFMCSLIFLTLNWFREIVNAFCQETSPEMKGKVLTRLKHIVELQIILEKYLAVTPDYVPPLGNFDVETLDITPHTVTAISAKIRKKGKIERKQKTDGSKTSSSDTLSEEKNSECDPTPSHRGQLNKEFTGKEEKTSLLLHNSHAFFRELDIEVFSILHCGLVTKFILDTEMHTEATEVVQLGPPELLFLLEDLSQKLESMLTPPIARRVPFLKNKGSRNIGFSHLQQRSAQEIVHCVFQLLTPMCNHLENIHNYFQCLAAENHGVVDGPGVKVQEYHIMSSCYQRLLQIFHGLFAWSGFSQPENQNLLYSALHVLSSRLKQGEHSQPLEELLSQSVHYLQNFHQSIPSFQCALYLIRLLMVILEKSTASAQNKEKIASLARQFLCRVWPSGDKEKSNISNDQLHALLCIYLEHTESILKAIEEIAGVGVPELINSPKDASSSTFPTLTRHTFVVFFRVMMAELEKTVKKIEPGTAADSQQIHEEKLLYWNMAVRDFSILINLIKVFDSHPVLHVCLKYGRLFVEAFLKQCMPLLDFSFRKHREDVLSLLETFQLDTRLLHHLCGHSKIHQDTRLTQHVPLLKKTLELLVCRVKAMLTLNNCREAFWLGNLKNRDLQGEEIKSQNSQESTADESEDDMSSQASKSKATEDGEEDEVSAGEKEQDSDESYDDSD
T1 sequence (Q9NVI1 whole entry, chain 2 of 2): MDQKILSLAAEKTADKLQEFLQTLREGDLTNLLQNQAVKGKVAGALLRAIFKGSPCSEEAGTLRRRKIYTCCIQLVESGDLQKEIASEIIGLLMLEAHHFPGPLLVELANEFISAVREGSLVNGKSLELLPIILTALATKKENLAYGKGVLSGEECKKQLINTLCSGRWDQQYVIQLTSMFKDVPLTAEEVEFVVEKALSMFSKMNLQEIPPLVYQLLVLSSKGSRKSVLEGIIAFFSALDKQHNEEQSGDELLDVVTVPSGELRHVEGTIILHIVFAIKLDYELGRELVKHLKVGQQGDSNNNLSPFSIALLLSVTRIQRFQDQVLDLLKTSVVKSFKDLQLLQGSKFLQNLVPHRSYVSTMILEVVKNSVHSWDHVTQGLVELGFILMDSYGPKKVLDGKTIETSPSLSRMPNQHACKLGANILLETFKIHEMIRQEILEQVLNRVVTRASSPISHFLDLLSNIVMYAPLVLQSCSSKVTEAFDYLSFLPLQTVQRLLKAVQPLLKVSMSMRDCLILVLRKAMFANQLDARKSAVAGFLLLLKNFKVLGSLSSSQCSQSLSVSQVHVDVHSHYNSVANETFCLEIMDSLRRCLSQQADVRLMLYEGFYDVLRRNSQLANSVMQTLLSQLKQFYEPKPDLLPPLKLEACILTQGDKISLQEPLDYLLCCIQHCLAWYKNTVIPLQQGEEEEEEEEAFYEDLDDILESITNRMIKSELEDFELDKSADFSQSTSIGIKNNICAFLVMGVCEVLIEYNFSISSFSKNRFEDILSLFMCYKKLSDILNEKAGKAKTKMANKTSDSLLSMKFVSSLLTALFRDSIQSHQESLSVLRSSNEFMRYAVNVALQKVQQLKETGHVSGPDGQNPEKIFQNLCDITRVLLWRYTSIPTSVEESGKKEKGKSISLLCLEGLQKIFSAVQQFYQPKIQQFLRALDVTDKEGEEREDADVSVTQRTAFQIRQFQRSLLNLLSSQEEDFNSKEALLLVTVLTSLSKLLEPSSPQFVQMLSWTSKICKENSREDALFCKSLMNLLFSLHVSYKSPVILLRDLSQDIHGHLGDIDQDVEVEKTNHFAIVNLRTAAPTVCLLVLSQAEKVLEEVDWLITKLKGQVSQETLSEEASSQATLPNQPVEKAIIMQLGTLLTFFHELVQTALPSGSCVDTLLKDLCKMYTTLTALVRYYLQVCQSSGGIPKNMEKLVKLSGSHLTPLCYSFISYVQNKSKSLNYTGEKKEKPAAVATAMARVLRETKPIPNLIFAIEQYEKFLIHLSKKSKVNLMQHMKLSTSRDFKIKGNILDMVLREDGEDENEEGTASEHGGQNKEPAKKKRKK

B1: ICL14FF (dsDNA)
DNA 1: CATTGTGAATTCGCCTCTCTGTCTAGCCGAAGCTCGAAACGATCTTGTGC
DNA 2: GTCCATCAAAGTTCGACTGTGCGGCTAGACAGAGAGGCGAATTCACAATG
DNA 3: GCACAAGATCGTTTCGAGCTT
DNA 4: GTCGAACTTTGATGGAC
Regarding B1, the binding result in series [1] is given as “binds”.

B2: ICL14FF-XL (dsDNA)
DNA 1: CATTGTGAATTCGCCTCTCTGTCTAGCCGAAGCTCGAAACGATCTTGTGC
DNA 2: GTCCATCAAAGTTCGACTGTGCGGCTAGACAGAGAGGCGAATTCACAATG
DNA 3: GCACAAGATCGTTTCGAGCTT
DNA 4: GTCGAACTTTGATGGAC
modifications: 4,5',8-trimethylpsoralen (TMP) interstrand crosslink between S5 and S6; crosslinked bases bold in original, not recoverable from text
As for B2, in series [2], the binding result is given as “binds”.

Values taken from paper PMC4947157.
